We go through two molecules from paper PMC6203816 (Nature Communications, 2018).

This experiment addresses C1080 envelope on concentrated pseudovirus particles (HIV-1 strain C1080 (clone C1080.c3 …, UniProt I6NF57, strain)). In words: ELISA. The settings on record: one partner purified.

B1: CAP228-3D IgG1 (antibody, V domains shown)
VH: EVQLVQSGAEVKKPGESLKISCKGFGYSFSTYWIAWVRQMPGKGLEWMGMIYPGDSDTKYSPSLQGQVTISGDKSISTAYLQWSSLKASDTAMYYCARLLNNYDSSGFLYWYLDLWGRGTLVTVSS
VL: NFMLTQPHSVSESPGKTVTISCTRSSGSIASDYVQWYQQRPGSSPTTVIYEDNQRPSGVPDRFSGSIDSSSNSASLTISGLKTEDEADYYCQSYDMTNHNWVFGGGTKLTVL
Take B1: the binding result is “binds”.

B2: 830 A (antibody, V domains shown)
VH: QVQLQQWGPGLLKPSETLSLTCAVYGGSFGRYYWSWIRQSSGEGLEWLGQIDHTGSTTYNPSLKGRVTISIDSSTNQFSLKVTSVIAADTAVYYCARAPSGYPGVSLYQYYGLDVWGQGTTVTVSS
VL: DTVMTQSPATLSVSPGERVTLSCRASQIINTNLAWYQKRPGQAPRLLIYAASARATGIPARFSGSGSGTEFTLTISGLQSEDSAVYYCQQYKHWPPYTFGRGTKLEIR
notes: also called V2i mAb 830 A
Take B2: the binding result is “binds”.
